According to patent publication US11529426B2, “Methods and compositions for targeting tissue lesions” (priority 2017, dated 2022):

B1: MabCII: monoclonal antibody to type II collagen from E4-D4 (E4) hybridoma clone; mouse IgG2a heavy chain, kappa light chain; VH/VL SEQ ID NO: 6/14 (antibody, listed as Mus musculus, V domains shown)
VH: EVQLVESGGGLVKPGGSLKVSCEASGFTFSDYGMHWVRQAPEKGLEWVAYISSVSSTIYYADTVEGRFTISRDNVRNTLFLQMTSLRSEDTAMYYCAREGWLPLFAFWGQGTLVTVSA
VL: DIVLTQSHKFMSTSVGDRVSITCKASQDVSITVAWYQQKPGQSPKLLIYSASYRNPGVPDRFTGSGSGTDFNFTISTVQAEDLAVYYCQQYYIIPWTFGGGTKLEFKR

Columns and labels:
[1] = test system: MMPs; assay: Mechanically loaded mouse knee (PTOA), E4 nanosomes: MMP activity by MMPSense-750 fluorescence; type: in vivo, C57BL/6 mice; details: intravenous, 100 uM TPCA-1, 3 injections, two-week loading; vs control nanosomes
Text: (§1) Targeted nanosomes were generated from lipids and conjugated to purified E4-D4 (E4) monoclonal antibody to type II collagen that was developed from a hybridoma isolated from mice immunized with type II collagen. Briefly, the lipid film which contained dioleoyl-sn-glycero-3-phosphocholine (DOPC), cholesterol, 1,2-distearoyl-sn-glycero-3-phosphoethanolamine-N-[maleimide (polyethylene glycol) 2000] (DSPE-PEG-maleimide) and TPCA-1 was rehydrated with phosphate buffered saline (PBS) and sonicated. The rehydrated lipids were repeatedly extruded through a 200 nm porous membrane to generate 200 nm 1-3 walled nanosomes. The E4 MabCII was thiolated using Traut's reagent, then mixed with the nanosomes for conjugation. […] The E4 MabCII was also conjugated to the near infrared dye XenoLight CF 680 (PerkinElmer) used for the final quantitative imaging of arthritic damage. […]
(§2) At the completion of the two-week loading period, mice were injected retro-orbitally with 100 μL composite mixture of 50 μL of 1 mg/ml E4 monoclonal antibody to type II collagen MabCII680 labeled with Xenolight CF 680 fluorescent dye and 50 μL of MMPSense-750 (Perkin-Elmer, Waltham, Mass.), a substrate that fluoresces when cleaved by MMPs. After 24 hours, the mice were anesthetized and the knee joints were optically scanned for each type of fluorescence using a Lumina XR Imaging System (Perkin Elmer, Waltham, Mass.).

[2] = test system: mechanically loaded mouse knee; assay: Mechanically loaded mouse knee, D1 2G nanosomes: cartilage damage by MabCII680 fluorescence; type: in vivo, C57BL/6 mice; details: intraarticular 50 μL, 500 μM TPCA-1, 2 injections, two-week loading; vs PBS
Text: Targeted nanosomes were generated from lipids and conjugated to purified D1 2G monoclonal antibody from a hybridoma isolated from mice immunized with type II collagen (MabCII). Briefly, the lipid film which contained 5.2 μmol dioleoyl-sn-glycero-3-phosphocholine (DOPC), 4.5 μmol cholesterol, 0.3 μmol 1,2-distearoyl-sn-glycero-3-phosphoethanolamine-N-[maleimide (polyethylene glycol) 2000] (DSPE-PEG-maleimide) and TPCA-1 was rehydrated with phosphate buffered saline (PBS) and sonicated. The rehydrated lipids were repeatedly extruded through a 200 nm porous membrane to generate 200 nm 1-3 walled nanosomes. The MabCII were thiolated using Traut's reagent, then mixed with the nanosomes for conjugation. After conjugation, the reaction mixture was chromatographed on a Sepharose CL-4B column to separate the free antibodies from the coupled liposomes. […]
as §2, with “of” for “of 1 mg/ml E4”, “(MabCII680)” for “MabCII680”, “XenoFluor” for “Xenolight CF”, “680 (XF680; Caliper)” for “680”, “Mass.)” for “Mass.),”, “XR” for “XR Imaging System”

[3] = test system: collagen-induced arthritis; details: mice, reference [20]; cited from earlier work
[4] = test system: mechanically loaded mouse knee; assay: Mechanically loaded mouse knee (PTOA), E4 nanosomes: cartilage damage by MabCII680 fluorescence; type: in vivo, C57BL/6 mice; details: intravenous, 100 uM TPCA-1, 3 injections, two-week loading; vs empty nanosomes (Control)
Text: as §1, §2

[5] = test system: type II collagen (Col2a1) expression; assay: Type II collagen gene expression (PCR) of reparative cells bound to devitalized scratched cartilage explants; type: cell-based, pig; details: one week
Description: For evaluation of gene expression of the reparative cells attaching to cartilage explants with the two step MabCII, biotin-avidin system described above, cartilage explants were devitalized by freeze thawing and washed three times before incubation with biotinylated MabCII and avidin/biotinylated chondrocytes or avidin/biotinylated chondrogenically differentiated ADSC cells as described above. After washing to remove unbound cells, the cells bound to the explants were incubated for one week in complete F12K culture medium with 10% FCS. The explants were then washed and the RNA extracted with Trizol for quantitative polymerase chain reaction (PCR) for the cartilage specific-type II collagen expression. Quantitative gene expression was analyzed by PCR using primers specific for type II collagen (Col-II) and the housekeeping gene glyceraldehyde-3-phosphate dehydrogenase (GAPDH). Gene expression was calculated as 2^−ΔΔCT after normalization to GAPDH expression. For some experiments gene expression from avidin/biotinylated cells that were incubated in standard tissue culture wells or incubated with cartilage with no antibody for the same period of time were set as 1+/− standard error of the mean (SEM) and compared to same type of cells binding to the cartilage explants.

[6] = test system: exposed type II collagen in articular cartilage explants; assay: Binding of fluorescent avidin/biotinylated reparative cells to cartilage explants pre-incubated with biotinylated antibody (IVIS imaging); design: species or system domestic pigs; details: for binding of fluorescent avidin/biotinylated ADSC cells to cartilage explant: biotinylated antibody 1 hr
Description: Type II collagen monoclonal antibody (MabCII) at a concentration of 1 mg/mL was buffer exchanged with phosphate buffered saline (PBS). The linking reagent NHS-PEG4-Biotin (Thermo Scientific) was then brought up in distilled water to a recommended 20-fold molar excess of Biotin per mg/mL of MabCII. The biotinylated MabCII sample was then added to a Zeba spin desalting column (Thermo Scientific) column and centrifuged at 1000×g for 2 minutes in order to remove excess biotin reagent. The collected flow-through solution was the purified sample. As a control, irrelevant monoclonal mouse IgG antibody of the same subclass (Isotope Control from R&D Systems, Inc.) was similarly prepared.
The reparative cells (isolated chondrocytes or chondrogenically differentiated ADSCs) previously labeled with a fluorescent dye (Vivotrack 680: PerkinElmer, MA), were re-suspended at 1×10^6 cells/ml in fresh serum-free medium with 250 mM sucrose, 1 mM HEPES, and 1 mM CaCl2. The PE-PEG-Biotin stock solution (1 mM) was then added to the various tubes at 25 μM final concentration and incubated for 60 minutes to allow PE-PEG-Biotin integration into the cell membranes. Neutravidin was dissolved in PBS and added to the PE-PEG-Biotin labeled cells at a final concentration of […] of Neutravidin. The tubes were then allowed to incubate on a rocker platform for 30 minutes at 37° C. for binding. After incubation, the cells were centrifuged, supernatants were discarded, and serum-free medium was added and the cells vortexed ready to incubate with the cartilage explants.
Cartilage explants were harvested from the articular cartilage of femoral condyles of domestic pigs ranging from 25 to 30 kilograms and were punched from cartilage explants taken from the surface of articular cartilage with a 6 mm dermal punch to provide equivalent surface areas. The cartilage explants were divided into two groups for incubation with biotinylated Mab; one group that would be mechanically damaged and one group with no damage (normal). […]

| Molecule | MMP activity: fluorescence of MMPSense-750 [1] | cartilage damage: binding of MabCII680, intensity in region of interest [2] | proinflammatory mediators in collagen-induced arthritis [3] | cartilage damage: binding of MabCII680, intensity in region of interest [4] | expression of CII relative to cells maintained without cartilage in standard tissue culture ([5]; articular chondrocytes on explants) | type II collagen (Col2a1) gene expression of targeted cells ([5]; avidin/biotinylated ADSC, FIG. 9B) | type II collagen (Col2a1) gene expression of targeted cells ([5]; avidin/biotinylated chondrocytes, FIG. 9A) | binding of isolated articular chondrocytes to cartilage explant ([6]; avidin/biotinylated chondrocytes, data not shown) | binding of fluorescent avidin/biotinylated ADSC cells to cartilage explant ([6]; damaged (scratched) cartilage) | binding of fluorescent avidin/biotinylated ADSC cells to cartilage explant ([6]; normal (unscratched) articular cartilage) |
| --- | --- | --- | --- | --- | --- | --- | --- | --- | --- | --- |
| NC(=O)Nc1sc(-c2ccc(F)cc2)cc1C(N)=O [TPCA-1, 2-[(aminocarbonyl)amino]-5-(4-fluorophenyl)-3-thiophenecarboxamide] | did not show significant reduction | no improvement | reduce proinflammatory mediators such as TNF-α | did not show significant improvement |  |  |  |  |  |  |
| B1 |  |  |  |  | equivalent | continue to express type II collagen | continue to express type II collagen | same specificity of binding | significant amount of reparative cells binding | not detectable |
